Test [1] has as its target recombinant UBE3A protein (Homo sapiens (Human)) (UniProt Q05086). The experiment in a line: 2-step Simoa; capture GTX; UBE3A 1.95 ng/ml.
For test [2] the target is unchanged. The experiment in a line: Simoa; capture GTX; 3E5 0.4 ug/ml; UBE3A 4.00 ng/ml.
For test [3] the target is unchanged. The experiment in a line: Simoa; capture GTX + helper beads; 3E5 0.4 ug/ml; UBE3A 0.160 ng/ml.
For test [4] the target is unchanged. Kind of test: Simoa; capture GTX, no helper beads; 3E5 0.4 ug/ml; UBE3A 0.0320 ng/ml.
The target is the same in test [5]. Kind of test: Simoa; capture GTX + helper beads; 3E5 0.4 ug/ml; UBE3A 0.0320 ng/ml.
The target is the same in test [6]. The experiment in a line: Simoa; capture GTX, no helper beads; 3E5 0.4 ug/ml; UBE3A 4.00 ng/ml.
For test [7] the target is unchanged. Kind of test: Simoa; capture GTX; 3E5 0.1 ug/ml; UBE3A 0.00640 ng/ml.

Sequence of UniProt Q05086 (Q05086 whole entry): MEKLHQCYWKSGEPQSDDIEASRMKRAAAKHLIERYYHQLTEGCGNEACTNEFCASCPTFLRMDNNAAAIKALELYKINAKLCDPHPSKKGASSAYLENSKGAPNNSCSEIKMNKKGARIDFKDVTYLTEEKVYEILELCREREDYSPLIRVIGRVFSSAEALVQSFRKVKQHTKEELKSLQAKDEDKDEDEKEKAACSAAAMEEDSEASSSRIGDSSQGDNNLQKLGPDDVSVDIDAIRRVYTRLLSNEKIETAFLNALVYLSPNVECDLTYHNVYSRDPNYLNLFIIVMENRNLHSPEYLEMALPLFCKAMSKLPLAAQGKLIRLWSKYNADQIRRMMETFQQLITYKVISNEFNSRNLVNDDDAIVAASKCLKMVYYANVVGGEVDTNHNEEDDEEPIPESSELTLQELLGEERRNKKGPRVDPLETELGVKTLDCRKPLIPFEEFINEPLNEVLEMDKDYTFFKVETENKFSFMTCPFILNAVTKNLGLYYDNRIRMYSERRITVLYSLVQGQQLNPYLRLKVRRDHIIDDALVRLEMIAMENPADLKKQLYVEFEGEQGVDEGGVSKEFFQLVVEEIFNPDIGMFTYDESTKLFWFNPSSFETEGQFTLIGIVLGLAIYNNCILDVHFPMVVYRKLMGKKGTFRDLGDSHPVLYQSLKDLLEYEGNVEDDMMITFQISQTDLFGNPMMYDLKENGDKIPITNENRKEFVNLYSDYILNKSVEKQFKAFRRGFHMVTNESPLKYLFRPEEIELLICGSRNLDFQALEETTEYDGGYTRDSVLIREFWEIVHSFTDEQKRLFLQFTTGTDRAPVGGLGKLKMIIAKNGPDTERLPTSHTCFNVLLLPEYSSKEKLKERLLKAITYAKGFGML

Regarding NB500-240 (Novus) (antibody), in test [1], the AEB1 was 0.018, the AEB2 was 0.0187, the Ave AEB came out at 0.0184 and the Signal to Background amounted to 5.62.

With “anti-UBE3A antibody 3E5 (SAB1404508-100 ug, Millipore-Sigma)”, the AEB1 in test [2] was found to be 2.3; in test [3], 0.0913; in test [4], 0.0366; in test [5] it was 0.037; in test [6], 1.1; in test [7], 0.0251. For the same substance, the AEB2 in test [2] is 2.58; in test [3] it was 0.105; in test [4] it was 0.037; in test [5], 0.0369; in test [6], 1.11; in test [7] it was 0.0238. Also, the AEB3 in test [2] was determined as 2.4; in test [7], 0.0256. In addition, the Average AEB in test [2] is 2.43; in test [3], 0.0983; in test [4] it was 0.0368; in test [5], 0.037; in test [6], 1.11; in test [7], 0.0248. Further, the Signal to Background in test [2] turned out to be 38.8; in test [3], 5.03; in test [4], 1.88; in test [5], 1.89; in test [6], 56.7; in test [7], 1.29.
